Source: US20220387417A1, “Pharmaceutical Combination and Use Thereof” (CSTONE PHARMACEUTICALS (SUZHOU) CO., LTD., priority 2019, published 2022)

Legend:
[1] = Body weight of B-hPD-1 humanized mice bearing MC38-hPD-L1 tumors, Embodiment 2 (antibody 2E5 / Lenvatinib mesylate); format: in vivo, Mus musculus; conditions: for Weight (g)/Mean ± SEM Day 17: 17th day after the start of treatment; for Weight (g) Changes: Day 17 vs Day 0
Description: (§1) MC38-hPD-L1 tumor cells were resuspended in 1×PBS to a concentration of 5×10^5 cells per 0.1 mL. Each of the B-hPD-1 humanized mice was subcutaneously inoculated at the right lateral thorax region with 0.1 mL of the cell suspension. When the average tumor volume reached about 77 mm^3, the mice with moderate tumor volume were selected and randomly divided into 6 groups according to tumor volume, with 10 mice in each group, and the treatment was initiated on the same day.
Animals were weighed 2-3 times a week before tumor inoculation, during animal grouping and the treatment, and before the euthanasia.
(§2) The original data measured and observed must be recorded. The original data was analyzed and the results were expressed by mean and standard error (Mean±SEM). The data of body weight, tumor volume and tumor weight was statistically analyzed using independent-samples t-test. All data were analyzed using SPSS, P<0.05 is considered to be statistically significant.

[2] = tested on: subcutaneous MC38-hPD-L1 transplanted tumor; test: Antibody 2E5 monotherapy or in combination with Lenvatinib mesylate on B-hPD-1 humanized mouse MC38-hPD-L1 colon cancer model: tumor volume, tumor weight, TGI, synergy score; format: in vivo; conditions: for Tumor volume (mm^3)/Mean ± SEM Day 17: 17th day after the start of treatment
Description: Synergy score was calculated using the following formula described in Clarke R. Issues in experimental design and endpoint analysis in the study of experimental cytotoxic agents in vivo in breast cancer and other models[J]. Breast Cancer Research & Treatment, 1997, 46(2-3):255-278, which is incorporated by reference in its entirety:
Synergy score=((A/C)×(B/C))/(AB/C);
where A is RTV value of drug A; B is RTV value of drug B; C is RTV value of vehicle control; AB is RTV value of combination treatment with A and B respectively. • Synergy score>1 represents synergistic; • Synergy score=1 represents additive; • Synergy score<1 represents antagonistic.
where V0 and Vt are the average tumor volume at the start of treatment (day 0) and the average tumor volume on a certain time point (day t).
Mouse colon cancer cells MC38 were purchased from Shun Ran (Shanghai) Biotechnology Co., Ltd., and the cells were cultured in a 37° C., 5% CO2 incubator supplemented with Dulbecco's Modified Eagle's medium containing 10% inactivated fetal bovine serum. MC38 cells were genetically modified to overexpress human PD-L1 and knock out murine PD-L1, the modified cells were named as MC38-hPD-L1 cells.
as §1
Tumor volume was measured 2-3 times a week in two dimensions using a caliper, and the volume was expressed in mm^3 using the formula: V=0.5 a×b^2 where a and b were the long and short diameters of the tumor, respectively.
At the termination of the experiment, the animals were photographed to record the tumor bearing state after euthanasia, and the tumors of the mice were weighed and photographed.
TGITV(%)=[1−(Ti−T0)/(Vi−V0)]×100%.
Ti: tumor volume of the treatment group at day i following treatment; T0: tumor volume of the treatment group at day 0 following treatment; Vi: tumor volume of the control group at day i following treatment; V0: tumor volume of the control group at day 0 following treatment.
At the termination of the experiment, the animals were euthanized, the tumors were separated and weighed, and the difference of tumor weight between each group was calculated. Tumor weight inhibition (TGITW) was calculated by the formula:
TGITW (%)=(WC−WT)/[…]×100%; where We means tumor weight of control group, WT means tumor weight of treatment group.
as §2

[3] = Antibody 2E5 1 mg/kg i.p., Lenvatinib mesylate 1 mg/kg p.o. QD (G2, G4, G5)
[4] = Antibody 2E5 2 mg/kg i.p., Lenvatinib mesylate 1 mg/kg p.o. QD (G3, G6)
[5] = Antibody 2E5 1 mg/kg, Lenvatinib mesylate 1 mg/kg (G2, G4, G5)
[6] = Antibody 2E5 2 mg/kg, Lenvatinib mesylate 1 mg/kg (G3, G6)

B1: Antibody 2E5: anti-PD-1 antibody (antibody N), heavy chain variable SEQ ID NO: 30, light chain variable SEQ ID NO: 31, human IgG4 constant region (antibody, V domains shown)
VH: QVQLVQSGAEVKKPGSSVKVSCKASGFTFTTYYISWVRQAPGQGLEYLGYINMGSGGTNYNEKFKGRVTITADKSTSTAYMELSSLRSEDTAVYYCAIIGYFDYWGQGTMVTVSS
VL: DVVMTQSPLSLPVTLGQPASISCRSSQSLLDSDGGTYLYWFQQRPGQSPRRLIYLVSTLGSGVPDRFSGSGSGTDFTLKISRVEAEDVGVYYCMQLTHWPYTFGQGTKLEIK
modifications: human IgG4 constant region; heavy chain variable region; light chain variable region
[1]; [3]
  Weight (g)/Mean ± SEM Day 17: 28.6 ± 0.7 g
  Weight (g)/Mean ± SEM Day 0: 24.9 ± 0.7 g
[1]; [4]
  Weight (g)/Mean ± SEM Day 17: 27.8 ± 0.7 g
  Weight (g)/Mean ± SEM Day 0: 25.0 ± 0.6 g
[1]; [5]
  Weight (g) Changes: +3.7 g
[1]; [6]
  Weight (g) Changes: +2.8 g
[2]; [3]
  Tumor volume (mm^3)/Mean ± SEM Day 17: 1195 ± 252 mm^3
[2]; [4]
  Tumor volume (mm^3)/Mean ± SEM Day 17: 1302 ± 202 mm^3
[2]; [5]
  Tumor volume (mm^3)/Mean ± SEM Day 0: 77 ± 2 mm^3
[2]; [6]
  Tumor volume (mm^3)/Mean ± SEM Day 0: 77 ± 2 mm^3
[2]; Day 17, Antibody 2E5 1 mg/kg, Lenvatinib mesylate 1 mg/kg (G2, G4, G5)
  Tumor weight (g) Mean ± SEM: 0.909 ± 0.186 g
[2]; Day 17, Antibody 2E5 2 mg/kg, Lenvatinib mesylate 1 mg/kg (G3, G6)
  Tumor weight (g) Mean ± SEM: 1.080 ± 0.190 g
[2]; by tumor volume, Day 17, vs hIgG4 control, Antibody 2E5 1 mg/kg, Lenvatinib mesylate 1 mg/kg (G2, G4, G5)
  Tumor growth inhibition (%): 56.4%
[2]; by tumor volume, Day 17, vs hIgG4 control, Antibody 2E5 2 mg/kg, Lenvatinib mesylate 1 mg/kg (G3, G6)
  Tumor growth inhibition (%): 52.2%
[2]; tumor weight analysis (Table 21), Day 17, vs IgG4 control, Antibody 2E5 1 mg/kg, Lenvatinib mesylate 1 mg/kg (G2, G4, G5)
  Tumor growth inhibition (%): 56.4%
[2]; tumor weight analysis (Table 21), Day 17, vs IgG4 control, Antibody 2E5 2 mg/kg, Lenvatinib mesylate 1 mg/kg (G3, G6)
  Tumor growth inhibition (%): 48.2%
